In patent publication US20230365671A1 (ONCOONE RESEARCH AND DEVELOPMENT, published 2023):

Columns and labels:
[1] = biological target: T1, oxMIF: recombinant human MIF immobilized into ELISA plates (transforming MIF to oxMIF) (human, UniProt P14174 2-115); test: ELISA, antibody titrated on plate-immobilized recombinant human MIF (oxMIF), goat anti-human IgG(Fc)-HRP; EC50 of 4-parameter fit given as KD, two experiments
T1 construct: Same polypeptide as redMIF; differs in conformation (oxMIF isoform); also called immobilized MIF; immobilized oxMIF
Procedure: (§1) Recombinant human MIF diluted in PBS at 1 μg/ml was immobilized into ELISA plates overnight at 4° C. (transforming MIF to oxMIF according to Thiele et al., 2015). After blocking, serial dilutions of anti-oxMIF antibodies were added to the plates. Finally, bound antibodies were detected with Goat anti-human IgG(Fc)-HRP conjugate and tetramethylbenzidine (TMB) as substrate. The chromogenic reaction was stopped with 3M H₂SO₄ and OD was measured at 450 nm.

[2] = biological target: T2, Human oxMIF (human recombinant MIF treated with 0.2% Proclin300, oxMIF surrogate) (human, UniProt P14174 2-115, treated with 0.2% Proclin300 (active component 5-chloro-2-methyl-4-isothiazolin-3-one) for 3 h to transform MIF into an oxMIF surrogate); test: SPR (Biacore 3000), antibody amine-coupled to CM5 chip, Proclin300-treated MIF 50-150 nM as analyte, 1:1 Langmuir with mass transfer; mean of flow cells 2-4, SD +/-0.38 nM
T2 construct: SPR analyte; also called Proclin300 treated MIF; soluble human oxMIF
Procedure: FC1 was used as reference cell and was only reacted with buffers. Mouse or human recombinant MIF were diluted in HBS-EP buffer (GE Healthcare) to concentrations of 50, 75, 100, or 150 nM in the presence of 0.2% Proclin300 (active component 5-chloro-2-methyl-4-isothiazolin-3-one; Sigma) to transform MIF into an oxMIF surrogate (Thiele M et al., 2015) for 3 h at room temperature. Proclin300 treated MIF was applied to immobilized anti-oxMIF antibodies at a flow rate of 30 μl/min for 3 min using a Biacore™ 3000 Instrument (GE Healthcare). Dissociation time was 300 seconds, and the chip was regenerated using 10 mM HCl for 3 minutes. The kinetics of the concentration series were analyzed by local simultaneous association/dissociation fitting of each binding curve after subtraction of background from the reference cell (FC1) using the iterative Langmuir 1:1 interaction model with mass transfer compensation provided by the BiaEvaluation 4.1 software (GE Healthcare). Data are represented as mean+/−SD (standard deviation) of the calculated KD values of Flow Cells 2-4.

[3] = biological target: T1, oxMIF: recombinant human MIF …; test: ELISA, antibody titrated on plate-immobilized recombinant human MIF (oxMIF), protein L-HRP; EC50 of 4-parameter fit given as KD, mean of two experiments
Procedure: as §1, with “using a protein L-HRP” for “with Goat anti-human IgG(Fc)-HRP”

[4] = biological target: T1, oxMIF: recombinant human MIF …; test: ELISA on plate-immobilized recombinant human MIF (oxMIF)
Procedure: as §1, with “using a protein L-HRP” for “with Goat anti-human IgG(Fc)-HRP”

T1 sequence (P14174 2-115 limits assumed): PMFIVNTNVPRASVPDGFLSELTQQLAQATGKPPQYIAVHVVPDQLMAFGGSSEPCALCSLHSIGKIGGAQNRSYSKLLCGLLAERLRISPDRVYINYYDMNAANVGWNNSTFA
T2 sequence (P14174 2-115 limits assumed): as above

Kd [3]	Binder	other results
0.7 nM	anti-oxMIF antibody C0008 (control antibody) (antibody, human IgG1, kappa, V domains shown, Human IgG with wt Fc) VH: EVQLLESGGGLVQPGGSLRLSCAASGFTFSIYSMNWVRQAPGKGLEWVSSIGSSGGTTYYADSVKGRFTISRDNSKNTLYLQMNSLRAEDTAVYYCAGSQWLYGMDVWGQGTTVTVSS VL: DIQMTQSPSSLSASVGDRVTITCRSSQRIMTYLNWYQQKPGKAPKLLIFVASHSQSGVPSRFRGSGSETDFTLTISGLQPEDSATYYCQQSFWTPLTFGGGTKVEIKR	Kd [1]: 0.2 nM; Kd [2]: 3.49 nM
1.1 nM	anti-oxMIF antibody C0076 (antibody, human IgG1, kappa, V domains shown) VH: EVQLQESGGGLVQPGGSLRLSCAASGFTFSIYSMNWVRQAPGKGLEWVSSIGSSGGTTYYADSVKGRFTISRDNSKNTLYLQMNSLRAEDTAVYYCAGSQWLYGMDVWGQGTTVTVSS VL: DIQMTQSPSSLSASVGDRVTITCRSSQRIMTYLNWYQQKPGKAPKLLIYVGSHSQSGVPSRFRGSGSETDFTLTISGLQPEDSATYYCQQSFWTPLTFGGGTKVEIKR	–
1 nM	anti-oxMIF antibody C0073 (antibody, human IgG1, kappa) heavy: not shown light: DIQMTQSPSSLSASVGDRVTITCRSSQRIMTYLNWYQQKPGKAPKLLIYVGSHSQSGVPSRFRGSGSETDFTLTISGLQPEDSATYYCQQSFFTPLTFGGGTKVEIKRTVAAPSVFIFPPSDEQLKSGTASVVCLLNNFYPREAKVQWKVDNALQSGNSQESVTEQDSKDSTYSLSSTLTLSKADYEKHKVYACEVTHQGLSSPVTKSFNRGEC	–
0.5 nM	anti-oxMIF antibody C0100 (antibody, human IgG1, kappa, Fc mutated to increase effector functions) heavy: EVQLLESGGGLVQPGGSLRLSCAASGFTFSIYSMNWVRQAPGKGLEWVSSIGSSGGTTYYADSVKGRFTISRDNSKNTLYLQMNSLRAEDTAVYYCAGSQWLYGMDVWGQGTTVTVSSASTKGPSVFPLAPSSKSTSGGTAALGCLVKDYFPEPVTVSWNSGALTSGVHTFPAVLQSSGLYSLSSVVTVPSSSLGTQTYICNVNHKPSNTKVDKRVEPKSCDKTHTCPPCPAPELVGGPSVFLLPPKPKDTLMISRTPEVTCVVVDVSHEDPEVKFNWYVDGVEVHNAKTKPPEEQYNSTLRVVSVLTVLHQDWLNGKEYKCKVSNKALPAPIEKTISKAKGQPREPQVYTLPPSRDELTKNQVSLTCLVKGFYPSDIAVEWESNGQPENNYKTTPLVLDSDGSFFLYSKLTVDKSRWQQGNVFSCSVMHEALHNHYTQKSLSLSPG light: DIQMTQSPSSLSASVGDRVTITCRSSQRIMTYLNWYQQKPGKAPKLLIYVGSHSQSGVPSRFRGSGSETDFTLTISGLQPEDSATYYCQQSFFTPLTFGGGTKVEIKRTVAAPSVFIFPPSDEQLKSGTASVVCLLNNFYPREAKVQWKVDNALQSGNSQESVTEQDSKDSTYSLSSTLTLSKADYEKHKVYACEVTHQGLSSPVTKSFNRGEC	–
0.8 nM	anti-oxMIF antibody C0097 (antibody, human IgG1, kappa, Fc mutated to increase effector functions) heavy: not shown light: DIQMTQSPSSLSASVGDRVTITCRSSQRIMTYLNWYQQKPGKAPKLLIYVGSHSQSGVPSRFRGSGSETDFTLTISGLQPEDSATYYCQQSFFTPLTFGGGTKVEIKRTVAAPSVFIFPPSDEQLKSGTASVVCLLNNFYPREAKVQWKVDNALQSGNSQESVTEQDSKDSTYSLSSTLTLSKADYEKHKVYACEVTHQGLSSPVTKSFNRGEC	–
0.4 nM	anti-oxMIF antibody C0099 (antibody, human IgG1, kappa, Fc mutated to increase effector functions) heavy: EVQLLESGGGLVQPGGSLRLSCAASGFTFSIYSMNWVRQAPGKGLEWVSSIGSSGGTTYYADSVKGRFTISRDNSKNTLYLQMNSLRAEDTAVYYCAGSQWLYGMDVWGQGTTVTVSSASTKGPSVFPLAPSSKSTSGGTAALGCLVKDYFPEPVTVSWNSGALTSGVHTFPAVLQSSGLYSLSSVVTVPSSSLGTQTYICNVNHKPSNTKVDKKVEPKSCDKTHTCPPCPAPELLGGPDVFLFPPKPKDTLMISRTPEVTCVVVDVSHEDPEVQFNWYVDGVEVHNAKTKPREEQFNSTFRVVSVLTVVHQDWLNGKEYKCKVSNKALPAPEEKTISKTKGQPREPQVYTLPPSREEMTKNQVSLTCLVKGFYPSDIAVEWESNGQPENNYKTTPPMLDSDGSFFLYSKLTVDKSRWQQGNVFSCSVMHEALHNHYTQKSLSLSPG light: DIQMTQSPSSLSASVGDRVTITCRSSQRIMTYLNWYQQKPGKAPKLLIYVGSHSQSGVPSRFRGSGSETDFTLTISGLQPEDSATYYCQQSFFTPLTFGGGTKVEIKRTVAAPSVFIFPPSDEQLKSGTASVVCLLNNFYPREAKVQWKVDNALQSGNSQESVTEQDSKDSTYSLSSTLTLSKADYEKHKVYACEVTHQGLSSPVTKSFNRGEC	–
5.2 nM	anti-oxMIF antibody C0077 (antibody, human IgG1, kappa, V domains shown, Differs from C0076 only by Y36F in VL) VH: EVQLQESGGGLVQPGGSLRLSCAASGFTFSIYSMNWVRQAPGKGLEWVSSIGSSGGTTYYADSVKGRFTISRDNSKNTLYLQMNSLRAEDTAVYYCAGSQWLYGMDVWGQGTTVTVSS VL: DIQMTQSPSSLSASVGDRVTITCRSSQRIMTYLNWFQQKPGKAPKLLIYVGSHSQSGVPSRFRGSGSETDFTLTISGLQPEDSATYYCQQSFWTPLTFGGGTKVEIKR	fold reduction in affinity compared to C0076 [4]: 5 fold
0.5 nM	anti-oxMIF antibody C0090 (antibody, human IgG1, kappa) heavy: not shown light: DIQMTQSPSSLSASVGDRVTITCRSSQRILTYLNWYQQKPGKAPKLLIYVGSHSQSGVPSRFRGSGSETDFTLTISGLQSEDSATYYCQQSFFTPLTFGGGTKVEIKRTVAAPSVFIFPPSDEQLKSGTASVVCLLNNFYPREAKVQWKVDNALQSGNSQESVTEQDSKDSTYSLSSTLTLSKADYEKHKVYACEVTHQGLSSPVTKSFNRGEC	–
0.7 nM	anti-oxMIF antibody C0098 (antibody, human IgG1, kappa, Fc mutated to increase effector functions) heavy: EVQLLESGGGLVQPGGSLRLSCAASGFTFSIYSMNWVRQAPGKGLEWVSSIGSSGGTTYYADSVKGRFTISRDNSKNTLYLQMNSLRAEDTAVYYCAGSQWLYGMDVWGQGTTVTVSSASTKGPSVFPLAPSSKSTSGGTAALGCLVKDYFPEPVTVSWNSGALTSGVHTFPAVLQSSGLYSLSSVVTVPSSSLGTQTYICNVNHKPSNTKVDKRVEPKSCDKTHTCPPCPAPELLGGPDVFLFPPKPKDTLMISRTPEVTCVVVDVSFEDPEVKFNWYVDGVEVHNAKTKPREEQYNSTYRVVSVLTVLHQDWLNGKEYKCKVTNKALPAPEEKTISKAKGQPREPQVYTLPPSREEMTKNQVSLTCLVKGFYPSDIAVEWESNGQPENNYKTTPPVLDSDGSFFLYSKLTVDKSRWQQGNVFSCSVMHEALHNHYTQKSLSLSPG light: DIQMTQSPSSLSASVGDRVTITCRSSQRIMTYLNWYQQKPGKAPKLLIYVGSHSQSGVPSRFRGSGSETDFTLTISGLQPEDSATYYCQQSFFTPLTFGGGTKVEIKRTVAAPSVFIFPPSDEQLKSGTASVVCLLNNFYPREAKVQWKVDNALQSGNSQESVTEQDSKDSTYSLSSTLTLSKADYEKHKVYACEVTHQGLSSPVTKSFNRGEC	–
1.6 nM	anti-oxMIF antibody C0078 (antibody, human IgG1, kappa) heavy: not shown light: DIQMTQSPSSLSASVGDRVTITCRSSQRIMTYLNWYQQKPGKAPKLLIYVGSHSQSGVPSRFRGSGSETDFTLTISGLQPEDSATYYCQQSFFTPLTFGGGTKVEIKRTVAAPSVFIFPPSDEQLKSGTASVVCLLNNFYPREAKVQWKVDNALQSGNSQESVTEQDSKDSTYSLSSTLTLSKADYEKHKVYACEVTHQGLSSPVTKSFNRGEC	–
0.5 nM	anti-oxMIF antibody C0083 (antibody, human IgG1, kappa) heavy: not shown light: DIQMTQSPSSLSASVGDRVTITCRSSQRIMTYLNWYQQKPGKAPKLLIYVGSHSQSGVPSRFRGSGSETDFTLTISGLQPEDSATYYCQQSFFTPLTFGGGTKVEIKRTVAAPSVFIFPPSDEQLKSGTASVVCLLNNFYPREAKVQWKVDNALQSGNSQESVTEQDSKDSTYSLSSTLTLSKADYEKHKVYACEVTHQGLSSPVTKSFNRGEC	–
